The source of these data is patent US20080058263A1 (published 2008).

Holding throughout (test): receptor-Fc IP
Test [1] has as its target T1, VEGFR-3-Fc (UniProt P35916 25-328).
T1 construct: domain: first three Ig domains; conditioned supernatant of 293T cells; also called VEGFR-3-Fc fusion protein; not shown: Fc fragment of the pIg vector
T1 sequence (looked up): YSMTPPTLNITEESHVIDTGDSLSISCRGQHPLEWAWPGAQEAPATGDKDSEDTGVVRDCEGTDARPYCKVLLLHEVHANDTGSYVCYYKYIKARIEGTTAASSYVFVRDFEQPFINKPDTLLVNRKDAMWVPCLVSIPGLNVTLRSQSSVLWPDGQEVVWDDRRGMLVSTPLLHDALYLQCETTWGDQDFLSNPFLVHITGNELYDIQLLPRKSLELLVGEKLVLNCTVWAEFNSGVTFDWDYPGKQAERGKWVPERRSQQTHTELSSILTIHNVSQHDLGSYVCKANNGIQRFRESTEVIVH
In a few lines: (§1)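 fusion protein at 400 ng/ml in an IP mix (PBS, 1.5% BSA, 0.06% Tween 20, 3 μg/ml heparin) was combined with sample supernatant at a 1:2 ratio. Bound ligand captured by immunoprecipitation with pentahistidine antibody.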

The target of test [2] is T2, VEGFR-2-Fc (UniProt P35968 20-322).
T2 construct: domain: first 3 Ig domains; conditioned supernatant of 293T cells; also called VEGFR-2-Fc fusion protein; not shown: Fc fragment of the pIg vector
A digest of the protocol:
as §1

The target of test [3] is T3, VEGFR-1-Fc (UniProt P17948 27-338).
T3 construct: domain: first three Ig domains; expressed in Drosophila S2 cells, purified on Protein A sepharose; also called VEGFR-1-Fc fusion protein; not shown: Fc fragment from the Signal-pIgPlus vector
A digest of the protocol: as §1

T2 sequence (P35968 20-322): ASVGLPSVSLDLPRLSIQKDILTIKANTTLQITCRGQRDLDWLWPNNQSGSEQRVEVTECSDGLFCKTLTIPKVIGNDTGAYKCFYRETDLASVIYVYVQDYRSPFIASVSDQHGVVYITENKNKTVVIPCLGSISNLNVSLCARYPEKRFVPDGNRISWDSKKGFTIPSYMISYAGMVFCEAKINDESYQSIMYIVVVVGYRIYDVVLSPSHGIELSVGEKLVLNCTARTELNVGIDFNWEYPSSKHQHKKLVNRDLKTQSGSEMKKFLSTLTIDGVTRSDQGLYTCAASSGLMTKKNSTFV
T3 sequence (P17948 27-338): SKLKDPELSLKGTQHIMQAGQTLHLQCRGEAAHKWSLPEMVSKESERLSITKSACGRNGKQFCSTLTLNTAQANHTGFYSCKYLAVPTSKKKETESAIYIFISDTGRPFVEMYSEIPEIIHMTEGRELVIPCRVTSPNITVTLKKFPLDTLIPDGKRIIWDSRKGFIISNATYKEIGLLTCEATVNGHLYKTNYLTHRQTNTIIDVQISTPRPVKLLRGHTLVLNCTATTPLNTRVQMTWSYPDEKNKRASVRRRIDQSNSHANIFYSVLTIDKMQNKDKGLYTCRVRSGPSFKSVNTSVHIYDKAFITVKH

B1: 11-1 (ligand)
chain: GQNHHEVVKFMDVYQRSYCHPIETLVDIFQEYPDEIEYIFKPSCVPLMRCGGCCNDEGLECVPTEESNITMQIMRIKPHQGQHIGEMSFLQHNKCECRPKKDLVFEQKLISEEDLNSAVDHHHHHH
Take B1: the binding result is reported as “no binding” in test [1], “binds” in test [2] and “binds” in test [3].

B2: 72-2 (ligand)
chain: GQNHHEVVKSIDNEWRKTQCMPREVCIDVGKEFGVATNTFFKPPCVSVYRCGGCCNDEGLECMNTSTSYLSKTLFEIKPHQGQHIGEMSFLQHNKCECRPKKD
In the case of B2, the binding result in test [1] is listed as “binds”; in test [2], “binds”; in test [3], “no binding”.

B3: 72-8 (ligand)
chain: GQNHHEVVKSIDNEWRKTQCMPREVCIDVGKEFGVATNTFFKPPCVSVYRCGGCCNSEGLQCMNTSTSYLSKTLFEIKPHQGQHIGEMSFANHTSCRCMSKLD
Take B3: the values for the binding result in test [1], in test [2] and in test [3] were “binds”, “binds” and “no binding”, respectively.

B4: 72-4 (ligand)
chain: GQNHHEVVKSIDNEWRKTQCMPREVCIDVGKEFGVATNTFFKPPCVSVYRCGGCCNSEGLQCMNTSTSYLSKTLFEIKPHQGQHIGEMSFLQHNKCECRPKKD
Turning to B4, the binding result in test [1] is “binds”; in test [2], “binds”; in test [3], “no binding”.

B5: 72-6 (ligand)
chain: GQNHHEVVKSIDNEWRKTQCMPREVCIDVGKEFGVATNTFFKPPCVSVYRCGGCCNDEGLECMNTSTSYLSKTLFEIKPHQGQHIGEMSFANHTSCRCMSKLD
For the molecule B5, the values for the binding result in test [1], in test [2] and in test [3] were “binds”, “no binding” and “no binding”, respectively.

B6: 22-4 (ligand)
chain: AHYNTEILKSIDNEWRKTQCMPREVCIDVGKEFGVATNTFFKPPCVSVYRCGGCCNSEGLQCMNTSTSYLSKTLFEIKPHQGQHIGEMSFLQHNKCECRPKKD
Regarding B6, the binding result in test [1] was “binds”; in test [2], “binds”; in test [3] it was “no binding”.

B7: 61-15 (ligand)
chain: GQNHHEVVKFMDVYQRSYCHPREVCIDVGKEYPDEIEYIFKPSCVPLMRCGGCCNSEGLQCVPTEESNITMQIMRITVPLSQGPKPVTISFANHTSCRCMSKLD
Consider B7, for which the binding result in test [1], in test [2] and in test [3] was “no binding” each time.

B8: 41-13 (ligand)
chain: AHYNTEILKFMDVYQRSYCHPREVCIDVGKEYPDEIEYIFKPSCVPLMRCGGCCNDEGLECVPTEESNITMQIMRITVPLSQGPKPVTISFANHTSCRCMSKLD
As for B8, the binding result in test [1], in test [2] and in test [3] was “no binding” throughout.

B9: 11-15 (ligand)
chain: GQNHHEVVKFMDVYQRSYCHPIETLVDIFQEYPDEIEYIFKPSCVPLMRCGGCCNSEGLQCVPTEESNITMQIMRITVPLSQGPKPVTISFANHTSCRCMSKLD
B9: the binding result is “no binding” in test [1], “binds” in test [2] and “binds” in test [3].

B10: 11-13 (ligand)
chain: GQNHHEVVKFMDVYQRSYCHPIETLVDIFQEYPDEIEYIFKPSCVPLMRCGGCCNDEGLECVPTEESNITMQIMRITVPLSQGPKPVTISFANHTSCRCMSKLD
For the molecule B10, the binding result in test [1] was “no binding”; in test [2], “no binding”; in test [3] it was “binds”.

B11: 13-15 (ligand)
chain: GQNHHEVVKFMDVYQRSYCHPIETLVDIFQEYPDEIEYIFKPPCVSVYRCGGCCNSEGLQCVPTEESNITMQIMRITVPLSQGPKPVTISFANHTSCRCMSKLD
For B11, the binding result in test [1] is reported as “no binding”; in test [2], “no binding”; in test [3], “binds”.

B12: 11-9 (ligand)
chain: GQNHHEVVKFMDVYQRSYCHPIETLVDIFQEYPDEIEYIFKPSCVPLMRCGGCCNDEGLECVPTEESNITMQIMRITVPLSQGPKPVTISFLQHNKCECRPKKD
Regarding B12, the binding result in test [1] is “no binding”; in test [2] it was “no binding”; in test [3], “binds”.

B13: 11-11 (ligand)
chain: GQNHHEVVKFMDVYQRSYCHPIETLVDIFQEYPDEIEYIFKPSCVPLMRCGGCCNSEGLQCVPTEESNITMQIMRITVPLSQGPKPVTISFLQHNKCECRPKKD
On to B13, for which the binding result in test [1] was “no binding”; in test [2], “binds”; in test [3], “binds”.

B14: 22-3 (ligand)
chain: AHYNTEILKSIDNEWRKTQCMPREVCIDVGKEFGVATNTFFKPPCVSVYRCGGCCNSEGLQCVPTEESNITMQIMRIKPHQGQHIGEMSFLQHNKCECRPKKD
Take B14: the figures for the binding result in test [1], in test [2] and in test [3] were “binds”, “no binding” and “no binding”, respectively.

B15: 72-10 (ligand)
chain: GQNHHEVVKSIDNEWRKTQCMPREVCIDVGKEFGVATNTFFKPPCVSVYRCGGCCNDEGLECMNTSTSYLSKTLFEITVPLSQGPKPVTISFLQHNKCECRPKKD
With B15, the binding result in test [1] is “binds”; in test [2], “binds”; in test [3], “no binding”.

B16: 72-12 (ligand)
chain: GQNHHEVVKSIDNEWRKTQCMPREVCIDVGKEFGVATNTFFKPPCVSVYRCGGCCNSEGLQCMNTSTSYLSKTLFEITVPLSQGPKPVTISFLQHNKCECRPKKD
B16: the binding result in test [1] was “binds”; in test [2], “binds”; in test [3], “no binding”.

B17: 82-16 (ligand)
chain: AHYNTEILKFMDVYQRSYCHPIETLVDIFQEFGVATNTFFKPPCVSVYRCGGCCNSEGLQCMNTSTSYLSKTLFEITVPLSQGPKPVTISFANHTSCRCMSKLD
Consider B17, for which the binding result in test [1] was “binds”; in test [2], “no binding”; in test [3], “no binding”.

B18: 84-1 (ligand)
chain: AHYNTEILKFMDVYQRSYCHPIETLVDIFQEFGVATNTFFKPSCVPLMRCGGCCNDEGLECVPTEESNITMQIMRIKPHQGQHIGEMSFLQHNKCECRPKKD
B18: the binding result in test [1] is given as “no binding”; in test [2] it was “no binding”; in test [3], “binds”.

B19: 84-3 (ligand)
chain: AHYNTEILKFMDVYQRSYCHPIETLVDIFQEFGVATNTFFKPSCVPLMRCGGCCNSEGLQCVPTEESNITMQIMRIKPHQGQHIGEMSFLQHNKCECRPKKD
With B19, the binding result was “no binding” in test [1], “binds” in test [2] and “binds” in test [3].

B20: 84-5 (ligand)
chain: AHYNTEILKFMDVYQRSYCHPIETLVDIFQEFGVATNTFFKPSCVPLMRCGGCCNDEGLECVPTEESNITMQIMRIKPHQGQHIGEMSFANHTSCRCMSKLD
Take B20: the binding result in test [1] is on record as “no binding”; in test [2], “no binding”; in test [3] it was “binds”.

B21: 11-3 (ligand)
chain: GQNHHEVVKFMDVYQRSYCHPIETLVDIFQEYPDEIEYIFKPSCVPLMRCGGCCNSEGLQCVPTEESNITMQIMRIKPHQGQHIGEMSFLQHNKCECRPKKD
Turning to B21, the binding result is listed as “no binding” in test [1], “binds” in test [2] and “binds” in test [3].

B22: 11-5 (ligand)
chain: GQNHHEVVKFMDVYQRSYCHPIETLVDIFQEYPDEIEYIFKPSCVPLMRCGGCCNDEGLECVPTEESNITMQIMRIKPHQGQHIGEMSFANHTSCRCMSKLD
As for B22, the binding result in test [1] is recorded as “no binding”; in test [2], “binds”; in test [3], “binds”.

B23: 11-7 (ligand)
chain: GQNHHEVVKFMDVYQRSYCHPIETLVDIFQEYPDEIEYIFKPSCVPLMRCGGCCNSEGLQCVPTEESNITMQIMRIKPHQGQHIGEMSFANHTSCRCMSKLD
Consider B23, for which the values for the binding result in test [1], in test [2] and in test [3] were “no binding”, “binds” and “binds”, respectively.
